This note sets out measurements from article doi:10.1101/2020.05.26.116228, “Cataract-associated New Mutants S175G/H181Q of βB2-Crystallin and P24S/S31G of γD-Crystallin are Involved in Protein aggregation by Structural Changes” (bioRxiv, 2020).

The data set deals with the molecule itself. As to the kind of experiment: SEC; Superdex 200 HR 10/30 in PBS (140 mM NaCl, 2.7 mM KCl, 10 mM Na2HPO4, pH 7.4), 0.5 mL/min; protein 2 mg/mL or 450 μg/100 μL (methods); markers albumin 66.4 kDa and α-lactalbumin 14.2 kDa; dimer in rapid equilibrium with monomer. Background: In gel filtration, larger molecules generally elute earlier.

B1: S175G/H181Q βB2-crystallin (natural protein, human)
chain: ASDHQTQAGKPQSLNPKIIIFEQENFQGHSHELNGPCPNLKETGVEKAGSVLVQAGPWVGYEQANCKGEQFVFEKGEYPRWDSWTSSRRTDSLSSLRPIKVDSQEHKIILYENPNFTGKKMEIIDDDVPSFHAHGYQEKVSSVRVQSGTWVGYQYPGYRGLQYLLEKGDYKDSGDFGAPQPQVQSVRRIRDMQWHQRGAFHPSN
notes: human βB2-crystallin with the double mutation found in nuclear cataract lenses, made by site-directed mutagenesis of pGEX-4t-1 CRBB2; also called S175G/H181Q mutant; CRBB2 S175G/H181Q; source: E. coli BL21 (DE3), purified (glutathione-agarose, cleaved from GST with thrombin)
In the case of B1, the binding result is “binds”.
